Results: article PMC8939767 (Science Translational Medicine, 2022)

Target: SARS-CoV-2 spike S2P (soluble S trimer with two proline mutations) (SARS-CoV-2, Wuhan reference, UniProt P0DTC2, stabilised)
Assay: BLI; […] (AHC) sensors, […], association 120 s, […]
Settings: both partners purified

B1: CC40.8 broadly neutralizing antibody (IgG) (antibody, V domains shown)
VH: EVQLLESGGGLVQPGGSLRLSCAASGFTFSSYVMTWARQAPGKGLEWVSAISGTGYTYYADSVKGRFTVSRDNSKNTLFLQMSSLRAEDTAVYYCAITMAPVVWGQGTTVTVSS
VL: SYELTQPPSVSVSPGQTARITCSGDALPKRYAYWYQQKSGQAPILVIYEDKKRPSGIPERLSGSKSGTVATLTISGAQVEDEADYYCYSTDSSGNHAVFGGGTQLTVL
notes: also called CC40.8 bnAb; CC40.8 mAb
**Q.** Does B1 bind?
**A.** Result: binds
